Experimental data reported in patent publication US20240182536A1 (MURAL ONCOLOGY, published 2024).
Changes are numbered by the printed parent chain. Numbers in names are those of the source. Read-outs that look alike come from different tables or passages of the source.

T1: human IL-18 binding protein (IL-18BP) (human, UniProt O95998 31-194)
T1 construct: also called hu IL-18BP; hIL18BP
T1 sequence (looked up): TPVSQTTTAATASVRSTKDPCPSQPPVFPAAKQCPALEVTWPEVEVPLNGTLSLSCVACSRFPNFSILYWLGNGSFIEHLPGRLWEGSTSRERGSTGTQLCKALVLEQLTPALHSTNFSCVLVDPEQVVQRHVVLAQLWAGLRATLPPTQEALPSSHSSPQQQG

T2: human IL-18R alpha/beta pair (IL-18Rab) (human, UniProt Q13478 19-329; O95256 20-356)
T2 construct: also called hu IL-18Rab
T2 sequence (looked up) 1: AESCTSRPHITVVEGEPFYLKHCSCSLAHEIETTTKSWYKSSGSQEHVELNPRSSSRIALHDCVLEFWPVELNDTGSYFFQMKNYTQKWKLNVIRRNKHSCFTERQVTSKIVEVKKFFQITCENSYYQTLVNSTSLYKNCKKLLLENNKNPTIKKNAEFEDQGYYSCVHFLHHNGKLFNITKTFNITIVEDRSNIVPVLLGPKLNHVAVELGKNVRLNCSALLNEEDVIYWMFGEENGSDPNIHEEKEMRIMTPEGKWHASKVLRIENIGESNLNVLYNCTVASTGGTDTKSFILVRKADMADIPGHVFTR
T2 sequence (looked up) 2: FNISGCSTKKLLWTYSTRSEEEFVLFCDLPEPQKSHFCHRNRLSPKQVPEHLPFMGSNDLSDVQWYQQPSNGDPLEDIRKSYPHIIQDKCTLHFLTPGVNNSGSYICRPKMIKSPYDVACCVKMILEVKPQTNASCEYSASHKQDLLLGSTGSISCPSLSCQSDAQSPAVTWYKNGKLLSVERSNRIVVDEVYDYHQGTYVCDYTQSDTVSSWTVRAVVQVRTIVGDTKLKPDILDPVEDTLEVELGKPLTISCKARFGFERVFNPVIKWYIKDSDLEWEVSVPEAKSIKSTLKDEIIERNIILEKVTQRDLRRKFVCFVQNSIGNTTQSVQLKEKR

T3: human IL-18 receptor alpha (IL-18Rα) (human, UniProt Q13478 19-329, limits assumed)
T3 construct: also called hu IL-18Ra; IL-18R alpha
T3 sequence (looked up): T2 sequence (looked up) 1

T4: IL-18 receptors on HEK-Blue IL-18 reporter cells (InvivoGen) (UniProt Q13478 19-541; O95256 20-599)
T4 sequence (looked up) 1: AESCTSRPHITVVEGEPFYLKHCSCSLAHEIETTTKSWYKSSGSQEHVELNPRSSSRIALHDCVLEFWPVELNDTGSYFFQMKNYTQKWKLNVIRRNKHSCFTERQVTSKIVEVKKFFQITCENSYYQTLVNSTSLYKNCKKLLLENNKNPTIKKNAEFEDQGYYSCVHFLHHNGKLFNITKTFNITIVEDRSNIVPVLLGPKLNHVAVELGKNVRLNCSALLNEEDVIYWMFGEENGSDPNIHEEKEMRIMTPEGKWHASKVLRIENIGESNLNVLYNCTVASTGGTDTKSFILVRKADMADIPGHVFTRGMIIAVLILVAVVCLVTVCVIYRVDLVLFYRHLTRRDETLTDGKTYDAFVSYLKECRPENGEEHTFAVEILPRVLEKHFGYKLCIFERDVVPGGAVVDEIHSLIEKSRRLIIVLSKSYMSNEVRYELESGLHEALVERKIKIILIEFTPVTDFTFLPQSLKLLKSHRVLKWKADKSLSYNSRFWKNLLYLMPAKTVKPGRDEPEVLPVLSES
T4 sequence (looked up) 2: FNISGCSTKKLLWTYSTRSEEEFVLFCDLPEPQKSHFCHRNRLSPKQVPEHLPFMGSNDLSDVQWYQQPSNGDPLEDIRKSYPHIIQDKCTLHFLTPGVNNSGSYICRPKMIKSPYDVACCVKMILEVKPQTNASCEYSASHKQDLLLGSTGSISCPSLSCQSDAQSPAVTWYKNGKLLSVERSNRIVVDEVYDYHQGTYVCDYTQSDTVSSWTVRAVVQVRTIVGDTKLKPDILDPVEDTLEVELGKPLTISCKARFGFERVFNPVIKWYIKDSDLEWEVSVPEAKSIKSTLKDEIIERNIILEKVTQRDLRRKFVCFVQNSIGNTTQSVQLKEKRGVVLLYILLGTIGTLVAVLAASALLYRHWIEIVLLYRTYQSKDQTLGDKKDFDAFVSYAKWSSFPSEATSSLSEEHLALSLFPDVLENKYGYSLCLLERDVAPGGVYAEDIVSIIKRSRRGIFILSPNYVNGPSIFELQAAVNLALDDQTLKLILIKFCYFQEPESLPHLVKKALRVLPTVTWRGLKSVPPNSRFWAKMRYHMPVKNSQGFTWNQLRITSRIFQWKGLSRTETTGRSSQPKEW

T5: IL-18 receptor (IL-18Rα and IL-18Rβ) (UniProt Q13478 19-541; O95256 20-599, limits assumed)
T5 sequence (looked up) 1: T4 sequence (looked up) 1
T5 sequence (looked up) 2: T4 sequence (looked up) 2

T6: interleukin 18 binding protein (IL-18BP) (UniProt O95998 31-194)
T6 sequence (looked up): T1 sequence (looked up)

B1: mouse IL-18 binding protein (other, UniProt Q9Z0M9 29-193, looked up)
chain: TSAPQTTATVLTGSSKDPCSSWSPAVPTKQYPALDVIWPEKEVPLNGTLTLSCTACSRFPYFSILYWLGNGSFIEHLPGRLKEGHTSREHRNTSTWLHRALVLEELSPTLRSTNFSCLFVDPGQVAQYHIILAQLWDGLKTAPSPSQETLSSHSPVSRSAGPGVA
notes: also called Mouse IL18BP; Mouse IL-18BP
B2: mouse IL-18 receptor alpha (receptor, UniProt Q61098 20-326, looked up)
chain: KSCIHRSQIHVVEGEPFYLKPCGISAPVHRNETATMRWFKGSASHEYRELNNRSSPRVTFHDHTLEFWPVEMEDEGTYISQVGNDRRNWTLNVTKRNKHSCFSDKLVTSRDVEVNKSLHITCKNPNYEELIQDTWLYKNCKEISKTPRILKDAEFGDEGYYSCVFSVHHNGTRYNITKTVNITVIEGRSKVTPAILGPKCEKVGVELGKDVELNCSASLNKDDLFYWSIRKEDSSDPNVQEDRKETTTWISEGKLHASKILRFQKITENYLNVLYNCTVANEEAIDTKSFVLVRKEIPDIPGHVFTG
notes: also called Mouse IL18Ra; mouse IL-18R alpha
B3: IL-18 variant G3T, M60K, D157E (ligand)
chain: YFTKLESKLSVIRNLNDQVLFIDQGNRPLFEDMTDSDMRDNAPRTIFIISMYKDSQPRGKAVTISVKSEKISTLSSENKIISFKEMNPPDNIKDTKSDIIFFQRSVPGHDNKMQFESSSYEGYFLASEKERDLFKLILKKEDELGDRSIMFTVQNEE
B4: IL-18 variant G3V, M60K (ligand)
chain: B3 chain with T3V, E157D
B5: Comparator 1 (ligand)
chain: YFGKLESKLSVIRNLNDQVLFIDQGNRPLFEDMTDSDCRDNAPRTIFIISKYSDSLARGLAVTISVKCEKISTLSCENKIISFKEMNPPDNIKDTKSDIIFFQRDVPGHSRKMQFESSSYEGYFLACEKERDLFKLILKKEDELGDRSIMFTVQNED

How the values were obtained:
[1] = biological target: T7, WT mouse IL-18 on monoFc scaffold (mouse; human, UniProt P70380 36-192); assay: Octet BLI, monoFc scaffold
T7 construct: mature
T7 sequence (P70380 other isoform, or with tags, fused parts or gaps): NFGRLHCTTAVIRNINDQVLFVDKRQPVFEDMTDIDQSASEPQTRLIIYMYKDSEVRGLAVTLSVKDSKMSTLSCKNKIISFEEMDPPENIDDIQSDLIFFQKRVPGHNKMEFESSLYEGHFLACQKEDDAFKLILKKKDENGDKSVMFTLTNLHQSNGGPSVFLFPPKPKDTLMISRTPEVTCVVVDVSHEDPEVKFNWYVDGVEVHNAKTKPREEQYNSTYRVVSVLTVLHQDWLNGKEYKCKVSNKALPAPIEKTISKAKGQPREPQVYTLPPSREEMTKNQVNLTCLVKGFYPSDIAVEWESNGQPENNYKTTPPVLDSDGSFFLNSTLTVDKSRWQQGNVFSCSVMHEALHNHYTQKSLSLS
Experimental: (§1) Octet 96red instrument was used to determine affinities of IL18 proteins to BP or receptors. 5-10 ug/ml analyte proteins were used for loading on Sartorius tips (AHC or SA). […] 120-180 s loading, 200 s association and 800 s dissociation were used for kinetics. 3-7 data points were used to calculate affinities.
Several mouse variants were next tested for binding affinity to mouse IL-18R alpha and mouse IL-18BP.

[2] = biological target: T1, human IL-18 binding protein (IL-18BP); assay: Octet BLI
Experimental: as §1

[3] = biological target: T2, human IL-18R alpha/beta pair (IL-18Rab); assay: Octet BLI
Experimental: as §1

[4] = biological target: T3, human IL-18 receptor alpha (IL-18Rα); assay: Octet BLI
Experimental: as §1

[5] = biological target: T1, human IL-18 binding protein (IL-18BP); assay: Octet BLI; remark: listed apart in the source
[6] = biological target: T2, human IL-18R alpha/beta pair (IL-18Rab); assay: Octet BLI; remark: listed apart in the source
[7] = biological target: T3, human IL-18 receptor alpha (IL-18Rα); assay: Octet BLI; remark: listed apart in the source
[8] = biological target: T1, human IL-18 binding protein (IL-18BP); assay: cell-based or functional assay
[9] = biological target: T4, IL-18 receptors on HEK-Blue IL-18 …; assay: cell-based or functional assay
[10] = biological target: T1, human IL-18 binding protein (IL-18BP); assay: cell-based or functional assay; remark: listed apart in the source
[11] = biological target: T4, IL-18 receptors on HEK-Blue IL-18 …; assay: cell-based or functional assay; remark: listed apart in the source
[12] = biological target: T1, human IL-18 binding protein (IL-18BP); assay: cell-based or functional assay; remark: listed apart in the source
[13] = biological target: T5, IL-18 receptor (IL-18Rα and IL-18Rβ); assay: cell-based or functional assay
[14] = biological target: T1, human IL-18 binding protein (IL-18BP); assay: cell-based or functional assay; remark: listed apart in the source
[15] = biological target: T4, IL-18 receptors on HEK-Blue IL-18 …; assay: cell-based or functional assay; remark: listed apart in the source
[16] = biological target: T5, IL-18 receptor (IL-18Rα and IL-18Rβ); assay: cell-based or functional assay; remark: listed apart in the source
[17] = biological target: T6, interleukin 18 binding protein (IL-18BP); assay: cell-based or functional assay

| Binder | Kd [1] | Kd [2] | Kd [3] | Kd [4] | Kd [5] | Kd [6] | Kd [7] | HEK-Blue Activity Assay Ec50 (pM), +300 nM hu IL-18BP [8] | HEK-Blue Activity Assay Ec50 (pM), -hu IL-18BP [9] | Fold Change (BP/NO BP), 50 nM BP [10] | Fold Change (BP/NO BP), 300 nM BP [10] | HEK-Blue EC50 pM, +50 nM BP [10] | HEK-blue EC50 (pM) + 300 nM BP [10] | HEK-Blue EC50 pM, NO BP (50 nM BP run) [11] | HEK-Blue EC50 pM, NO BP (300 nM BP run) [11] | EC50 pM, IFN gamma expression in PBMCs, + 300 nM BP [12] | EC50 pM, IFN gamma expression in PBMCs, no BP [13] | HEK-Blue Activity Assay Ec50 (pM), +50 nM hu IL-18BP [14] | HEK-Blue Activity Assay Ec50 (pM), -hu IL-18BP [15] | also measured |
| --- | --- | --- | --- | --- | --- | --- | --- | --- | --- | --- | --- | --- | --- | --- | --- | --- | --- | --- | --- | --- |
| B1 | 2.24 nM |  |  |  |  |  |  |  |  |  |  |  |  |  |  |  |  |  |  |  |
| B2 | 13.3 nM |  |  |  |  |  |  |  |  |  |  |  |  |  |  |  |  |  |  |  |
| B3 |  | 686 nM | 0.1 nM | 693 nM | 686 nM | 0.1 nM | 693 nM | 2.77 pM | 0.75 pM | 1.05 fold | 3.69 fold | 0.65 pM | 2.77 pM | 0.62 pM | 0.75 pM | 323 pM | 127 pM | 0.65 pM | 0.62 pM |  |
| B4 |  | 91 nM | 0.07 nM | 41 nM | 91 nM | 0.07 nM | 41 nM | 0.59 pM | 0.18 pM | 1.25 fold | 3.25 fold | 0.16 pM | 0.59 pM | 0.12 pM | 0.18 pM | 14.4 pM | 14.9 pM | 0.16 pM | 0.12 pM |  |
| B5 |  |  |  |  |  |  |  |  |  |  |  |  |  |  |  |  |  |  |  | EC50 (pM), PBMC IFN gamma assay [16]: 4.86 pM; EC50 (pM), PBMC IFN gamma assay, + 300 nM BP [17]: 8.78 pM |
